Reference: patent publication US20240270821A1, “GIP/GLP1/GCG TRI-RECEPTOR AGONISTS AND USES THEREOF” (priority 2023, published 2024)
Substitutions are numbered along the chain they refer to. Starred links: 1 amine or outer side, 2 acyl side, 3 side chain; linkers in the order of their positions; H or OH if unused. Non-standard residues stand in square brackets, D forms with d. Groups on a side chain read outwards from the residue. No end group written: not given here. *: point of attachment. C18 diacid = O=C(O)CCCCCCCCCCCCCCCCC(=O)*; γGlu = O=C(O)[C@H](CCC(=O)[*:2])N[*:1]; αMeL = CC(C)C[C@](C)(N)C(=O)O; Dab = NCC[C@H](N)C(=O)O; AEEA = NCCOCCOCC(=O)O; Aib = CC(C)(N)C(=O)O

B1: Example 124 (peptide)
chain: YXQGTFTSDFSXXLDKKAQXAFIEWLLEGGHSSGEPPPSGE
modifications: synthetic construct; SITE 2: note = 2-Aminoisobutyric Acid; SITE 12: note = L-ornithine; SITE 13: note = alpha-methyl-leucine; SITE 17: note = Lysine is chemically modified through conjugation of the epsilon-amino group of the Lysine side chain with (2-[2-(2-Amino-ethoxy)-ethoxy]-acetyl)-(gamma-Glu)
B2: Example 47 (peptide)
chain: YXQGTFTSDFSKXLDKKAQXAFIEYLLEGAPSSGAPPPSEG
modifications: synthetic construct; SITE 2: note = 2-Aminoisobutyric Acid; SITE 13: note = alpha-methyl-leucine; SITE 17: note = Lysine is chemically modified through conjugation of the epsilon-amino group of the Lysine side chain with (2-[2-(2-Amino-ethoxy)-ethoxy]-acetyl)-(gamma-Glu)-CO-(CH2) 18-CO2H; SITE 20: n
B3: Example 127 (peptide)
chain: B1 chain with S39E, E41S
modifications: synthetic construct; SITE 2: note = 2-Aminoisobutyric Acid; SITE 12: note = L-ornithine; SITE 13: note = alpha-methyl-leucine; SITE 17: note = Lysine is chemically modified through conjugation of the epsilon-amino group of the Lysine side chain with (2-[2-(2-Amino-ethoxy)-ethoxy]-acetyl)-(gamma-Glu)
B4: Example 128 (peptide)
chain: B1 chain with W25Y, G29A, H31P, E35A
modifications: synthetic construct; SITE 2: note = 2-Aminoisobutyric Acid; SITE 12: note = L-ornithine; SITE 13: note = alpha-methyl-leucine; SITE 17: note = Lysine is chemically modified through conjugation of the epsilon-amino group of the Lysine side chain with (2-[2-(2-Amino-ethoxy)-ethoxy]-acetyl)2-(gamma-Glu)
B5: Example 130 (peptide)
chain: B2 chain with K12X, A30G, S39E, E40G, G41S
modifications: synthetic construct; SITE 2: note = 2-Aminoisobutyric Acid; SITE 12: note = L-ornithine; SITE 13: note = alpha-methyl-leucine; SITE 17: note = Lysine is chemically modified through conjugation of the epsilon-amino group of the Lysine side chain with (2-[2-(2-Amino-ethoxy)-ethoxy]-acetyl)-(gamma-Glu)
B6: Example 131 (peptide)
chain: B1 chain with W25Y, H31P, E41S
modifications: synthetic construct; SITE 2: note = 2-Aminoisobutyric Acid; SITE 12: note = L-ornithine; SITE 13: note = alpha-methyl-leucine; SITE 17: note = Lysine is chemically modified through conjugation of the epsilon-amino group of the Lysine side chain with (2-[2-(2-Amino-ethoxy)-ethoxy]-acetyl)-(gamma-Glu)
B7: Example 133 (peptide)
chain: Y[Aib]QGTFTSDFS[Dab][αMeL]LDKK([AEEA-γGlu-C18 diacid])AQ[Aib]AFIEYLLE[Aib]GPSSGAPPPSGS-NH2
modifications: ends and bridges not checked
B8: Example 135 (peptide)
chain: B1 chain with W25Y, G29A, H31P
modifications: synthetic construct; SITE 2: note = 2-Aminoisobutyric Acid; SITE 12: note = L-ornithine; SITE 13: note = alpha-methyl-leucine; SITE 17: note = Lysine is chemically modified through conjugation of the epsilon-amino group of the Lysine side chain with (2-[2-(2-Amino-ethoxy)-ethoxy]-acetyl)-(gamma-Glu)
B9: Example 142 (peptide)
chain: B2 chain with A30G, E40G, G41S
modifications: synthetic construct; SITE 2: note = 2-Aminoisobutyric Acid; SITE 13: note = alpha-methyl-leucine; SITE 17: note = Lysine is chemically modified through conjugation of the epsilon-amino group of the Lysine side chain with (2-[2-(2-Amino-ethoxy)-ethoxy]-acetyl)2-(gamma-Glu)-CO-(CH2 )16-CO2H; SITE 20:
B10: Example 144 (peptide)
chain: B2 chain with K12R, A30G, E40G, G41S
modifications: synthetic construct; SITE 2: note = 2-Aminoisobutyric Acid; SITE 13: note = alpha-methyl-leucine; SITE 17: note = Lysine is chemically modified through conjugation of the epsilon-amino group of the Lysine side chain with (2-[2-(2-Amino-ethoxy)-ethoxy]-acetyl)2-(gamma-Glu)-CO-(CH2 )16-CO2H; SITE 20:

target: T1, human GIP receptor (human) (UniProt P48546); test: cell-based or functional assay
T1 sequence (looked up): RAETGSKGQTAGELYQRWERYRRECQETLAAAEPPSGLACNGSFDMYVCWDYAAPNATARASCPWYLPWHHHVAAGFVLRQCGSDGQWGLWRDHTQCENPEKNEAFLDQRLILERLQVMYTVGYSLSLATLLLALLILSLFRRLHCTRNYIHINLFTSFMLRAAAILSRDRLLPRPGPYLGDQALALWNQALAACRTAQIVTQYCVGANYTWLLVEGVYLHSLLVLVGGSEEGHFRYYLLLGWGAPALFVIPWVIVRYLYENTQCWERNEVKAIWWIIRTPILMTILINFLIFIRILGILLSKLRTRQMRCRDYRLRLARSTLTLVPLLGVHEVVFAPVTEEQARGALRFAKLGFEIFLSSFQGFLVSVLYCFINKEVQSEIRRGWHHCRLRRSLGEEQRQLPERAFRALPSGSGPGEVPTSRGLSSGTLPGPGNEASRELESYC

Point of comparison: B4, Relative cAMP EC50 0.307 nM. Against it:
- B1 — within 1.5-fold, 0.344 nM
- B2 — within 1.5-fold, 0.388 nM
- B3 — within 1.5-fold, 0.312 nM
- B5 — within 1.5-fold, 0.411 nM
- B6 — within 1.5-fold, 0.416 nM
- B7 — 2-fold lower, 0.15 nM
- B8 — within 1.5-fold, 0.246 nM
- B9 — within 1.5-fold, 0.216 nM
- B10 — within 1.5-fold, 0.23 nM

Point of comparison: B4, cAMP Rel EC50, nM (in the presence of 1% HSA) 24.3 nM. Against it:
- B1 — 2.3-fold higher, 54.7 nM
- B3 — 2.6-fold higher, 62.9 nM
- B5 — 2.5-fold higher, 60.5 nM
- B6 — 3.8-fold higher, 91.8 nM
- B7 — within 1.5-fold, 23.1 nM
- B8 — within 1.5-fold, 23.4 nM
- B9 — 1.7-fold lower, 14.1 nM
- B10 — 1.9-fold higher, 46.2 nM

target: human glucagon receptor (human) (UniProt P47871); test: cell-based or functional assay
Sequence (P47871 26-477): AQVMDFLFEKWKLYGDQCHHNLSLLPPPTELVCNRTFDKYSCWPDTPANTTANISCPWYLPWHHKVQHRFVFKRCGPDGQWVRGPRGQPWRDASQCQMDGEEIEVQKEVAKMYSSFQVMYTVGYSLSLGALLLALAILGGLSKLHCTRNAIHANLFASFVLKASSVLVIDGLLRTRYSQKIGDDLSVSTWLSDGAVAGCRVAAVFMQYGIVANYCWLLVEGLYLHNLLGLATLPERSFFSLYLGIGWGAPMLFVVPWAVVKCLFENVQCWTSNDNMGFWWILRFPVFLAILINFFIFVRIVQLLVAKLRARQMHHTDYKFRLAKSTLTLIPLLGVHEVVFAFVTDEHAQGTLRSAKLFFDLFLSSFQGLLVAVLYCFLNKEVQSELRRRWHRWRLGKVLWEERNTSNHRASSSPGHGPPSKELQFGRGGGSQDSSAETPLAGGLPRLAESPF

Point of comparison: B1, Relative cAMP EC50 2.92 nM. Against it:
- B2 — 1.9-fold higher, 5.61 nM
- B3 — within 1.5-fold, 4.35 nM
- B4 — 2.3-fold higher, 6.76 nM
- B5 — within 1.5-fold, 3.74 nM
- B6 — within 1.5-fold, 2.64 nM
- B7 — 1.8-fold lower, 1.64 nM
- B8 — within 1.5-fold, 2.53 nM
- B9 — within 1.5-fold, 3.49 nM
- B10 — 5.1-fold higher, 14.8 nM

Point of comparison: B10, cAMP Rel EC50, nM (in the presence of 1% HSA) 2600 nM. Against it:
- B1 — 4.6-fold lower, 567 nM
- B3 — 2.6-fold lower, 1010 nM
- B4 — 2.4-fold lower, 1090 nM
- B5 — 2.4-fold lower, 1080 nM
- B6 — 2.7-fold lower, 976 nM
- B7 — 4-fold lower, 642 nM
- B8 — 4.7-fold lower, 557 nM
- B9 — 2.1-fold lower, 1230 nM

target: hGLP-1R (Homo sapiens, UniProt P43220); test: cell-based or functional assay
Sequence (P43220 24-463): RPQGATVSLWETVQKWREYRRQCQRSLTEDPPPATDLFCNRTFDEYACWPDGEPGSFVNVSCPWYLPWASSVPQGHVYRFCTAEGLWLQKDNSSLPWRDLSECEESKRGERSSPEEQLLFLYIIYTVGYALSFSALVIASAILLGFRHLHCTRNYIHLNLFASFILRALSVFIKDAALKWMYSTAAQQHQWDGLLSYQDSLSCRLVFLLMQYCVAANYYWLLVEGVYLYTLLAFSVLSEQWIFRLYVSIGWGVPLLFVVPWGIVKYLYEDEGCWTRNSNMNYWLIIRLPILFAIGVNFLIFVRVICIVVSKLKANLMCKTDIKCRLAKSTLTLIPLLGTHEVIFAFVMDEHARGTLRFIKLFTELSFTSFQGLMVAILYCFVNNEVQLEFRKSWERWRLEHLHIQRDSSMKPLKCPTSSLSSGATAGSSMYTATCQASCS

Point of comparison: B8, Relative cAMP EC50 3.3 nM. Against it:
- B1 — 1.9-fold higher, 6.14 nM
- B2 — within 1.5-fold, 3.4 nM
- B3 — within 1.5-fold, 4.8 nM
- B4 — within 1.5-fold, 3.5 nM
- B5 — within 1.5-fold, 4.29 nM
- B6 — 1.7-fold higher, 5.51 nM
- B7 — within 1.5-fold, 3.6 nM
- B9 — within 1.5-fold, 4.37 nM
- B10 — within 1.5-fold, 4.02 nM

Point of comparison: B4, cAMP Rel EC50, nM (in the presence of 1% HSA) 679 nM. Against it:
- B1 — within 1.5-fold, 801 nM
- B3 — within 1.5-fold, 1000 nM
- B5 — within 1.5-fold, 865 nM
- B6 — within 1.5-fold, 984 nM
- B7 — 1.7-fold higher, 1180 nM
- B8 — within 1.5-fold, 472 nM
- B9 — 1.7-fold lower, 391 nM
- B10 — within 1.5-fold, 990 nM
